B1: Glutamate receptor 1 (Rattus norvegicus (Rat)), P19490 (parent)
chain: MPYIFAFFCTGFLGAVVGANFPNNIQIGGLFPNQQSQEHAAFRFALSQLTEPPKLLPQIDIVNISDSFEMTYRFCSQFSKGVYAIFGFYERRTVNMLTSFCGALHVCFITPSFPVDTSNQFVLQLRPELQEALISIIDHYKWQTFVYIYDADRGLSVLQRVLDTAAEKNWQVTAVNILTTTEEGYRMLFQDLEKKKERLVVVDCESERLNAILGQIVKLEKNGIGYHYILANLGFMDIDLNKFKESGANVTGFQLVNYTDTIPARIMQQWRTSDSRDHTRVDWKRPKYTSALTYDGVKVMAEAFQSLRRQRIDISRRGNAGDCLANPAVPWGQGIDIQRALQQVRFEGLTGNVQFNEKGRRTNYTLHVIEMKHDGIRKIGYWNEDDKFVPAATDAQAGGDNSSVQNRTYIVTTILEDPYVMLKKNANQFEGNDRYEGYCVELAAEIAKHVGYSYRLEIVSDGKYGARDPDTKAWNGMVGELVYGRADVAVAPLTITLVREEVIDFSKPFMSLGISIMIKKPQKSKPGVFSFLDPLAYEIWMCIVFAYIGVSVVLFLVSRFSPYEWHSEEFEEGRDQTTSDQSNEFGIFNSLWFSLGAFMQQGCDISPRSLSGRIVGGVWWFFTLIIISSYTANLAAFLTVERMVSPIESAEDLAKQTEIAYGTLEAGSTKEFFRRSKIAVFEKMWTYMKSAEPSVFVRTTEEGMIRVRKSKGKYAYLLESTMNEYIEQRKPCDTMKVGGNLDSKGYGIATPKGSALRNPVNLAVLKLNEQGLLDKLKNKWWYDKGECGSGGGDSKDKTSALSLSNVAGVFYILIGGLGLAMLVALIEFCYKSRSESKRMKGFCLIPQQSINEAIRTSTLPRNSGAGASGGGGSGENGRVVSQDFPKSMQSIPCMSHSSGMPLGATGL

In the assay the parent is B1. The note with it: with kcc2a_rat Camk2a.
On to S567A, for which the “effect of a mutation on the interaction” value was “disrupting interaction”.

These data come from IntAct's records for PubMed 21135237.
